Among the data in PMC4162137 are mef2c enhancer luciferase reporter in HEK293 cells: 40 ng TM-ERG3 with 0-40 ng TM-ERG8 plasmid; reduction in luciferase activity against TM-ERG3 alone (at 20 ng or 40 ng TM-ERG8) (% reduction in luciferase activity), percent of cells positive for fluorescence (% cells positive for fluorescence) and percent of cells positive for fluorescence (% positive cells) values, retold here.

The target in test [1] is TMPRSS2-ERG3 encoded protein (Type I ERG) fused to an N- or C-terminal fragment of Venus (human) (UniProt P11308).
The target is the same in test [2]. The test is described as follows: split reporter (BiFC, NanoBiT); BiFC with split Venus in HEK293 cells, 24 hours after transfection, percent of fluorescent cells counted by flow cytometry. (Flow cytometry measures light scatter and fluorescence of single cells or particles in a stream.)
For test [3], the target named is TMPRSS2-ERG8 encoded protein (Type II ERG) fused to an N- or C-terminal fragment of Venus (human). The description is as above.
Chain of TMPRSS2-ERG8 encoded protein (Type II ERG) fused to an N- or C-terminal fragment of Venus (human) (P11308 whole entry, the tested form may be a part): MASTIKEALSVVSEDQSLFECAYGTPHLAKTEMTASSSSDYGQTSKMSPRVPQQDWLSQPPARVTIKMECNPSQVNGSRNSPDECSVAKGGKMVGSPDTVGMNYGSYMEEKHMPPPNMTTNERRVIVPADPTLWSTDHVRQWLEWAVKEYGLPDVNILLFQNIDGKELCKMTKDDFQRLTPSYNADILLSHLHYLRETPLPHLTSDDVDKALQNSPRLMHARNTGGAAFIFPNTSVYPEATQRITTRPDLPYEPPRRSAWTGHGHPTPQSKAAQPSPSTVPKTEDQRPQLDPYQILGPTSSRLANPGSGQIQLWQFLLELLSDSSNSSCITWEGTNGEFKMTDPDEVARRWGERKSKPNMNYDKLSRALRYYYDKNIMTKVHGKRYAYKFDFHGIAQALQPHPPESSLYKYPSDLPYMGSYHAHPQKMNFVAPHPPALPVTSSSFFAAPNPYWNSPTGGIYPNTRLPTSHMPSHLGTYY

Take “TMPRSS2-ERG8 encoded protein (Type II ERG) fused to an N- or C-terminal fragment of Venus (natural protein)”: the mef2c enhancer luciferase reporter in HEK293 cells: 40 ng TM-ERG3 with 0-40 ng TM-ERG8 plasmid; reduction in luciferase activity against TM-ERG3 alone (at 20 ng or 40 ng TM-ERG8) (% reduction in luciferase activity) in test [1] is 50. In test [2], this substance displayed a percent of cells positive for fluorescence (% cells positive for fluorescence) of 12.7. Besides, the percent of cells positive for fluorescence (% positive cells) in test [3] worked out at 5.4.

In turn, “TMPRSS2-ERG3 encoded protein (Type I ERG) fused to an N- or C-terminal fragment of Venus (from UniProt P11308-4 33-479) (natural protein)” showed a percent of cells positive for fluorescence (% cells positive for fluorescence) in test [3] of 10.1.
